64 variants from paper PMC13397619 can be followed below.

B1: NLV2 TCR alpha chain (CDR3α only) (parent)
chain: AGPMKTSYDKVI
B2: NLV2 TCR alpha chain (CDR3α only) (parent)
chain: AGPMKTSYDKVI
partner: NLVGMVATV

The variants in assay [1] derive from B1. Kind of assay: T-Switch: Jurkat TCRβ−/− cells expressing a CDR3 saturation-mutagenesis library, stained with two peptide-HLA-A*02:01 tetramers (original and novel peptide) plus anti-CD3, FACS-sorted into four gates, gDNA sequenced. The note with it: tetramers 1 µg/mL, 30 min on ice, SP, DP and SW gates expanded about 10 days between rounds ('two to three rounds of selection' in the Methods), unresolved parent, parent is a CDR3 fragment, scale: fold enrichment, numbering: sequential-on-construct, sequence starts at 1.

Variants of B2 are the subject of assay [2]. The description is as above. Conditions: with HLA-A*02:01 with peptide … (NLV 2-2, the original bait), tetramers 1 µg/mL, 30 min on ice, DP and SW gates expanded about 10 days between rounds ('two to three rounds of selection' in the Methods), gate SP: higher = more of the variant in the gate that binds the original peptide and not the novel one = retained original binding. Fold enrichment of the CDR3 variant in one FACS gate of a two-tetra, unresolved parent, parent is a CDR3 fragment, scale: fold enrichment, numbering: sequential-on-construct, sequence ….

The mark [3] stands for this setting: with both tetramers (double-negative gate, binds neither): HLA-A*02:01 with … and with …, gate DN: OPPOSITE: higher = more of the variant in the gate that binds neither peptide = LESS binding (or no expression; inferred). Fold enrichment of the CDR3 variant in one FACS gate of a two-tetram.
Where [4] appears, read: with both tetramers (double-positive gate): HLA-A*02:01 with … and with …, gate DP: higher = more of the variant in the gate that binds both peptides. Fold enrichment of the CDR3 variant in one FACS gate of a two-tetramer stain. SP/DP/SW gates were expanded and re-sorted bef.

With […] (CDR3 as printed); P3S derived by comparing it with the table's wild-type CDR3 AGPMKTSYDKVI, the enrichment in assay [1] (setting [3]) came to 1.18; in assay [1] (setting [4]), 0.

With […] (CDR3 as printed); S7V derived by comparing it with the table's wild-type CDR3 AGPMKTSYDKVI, the enrichment was 0.928 in assay [1] (setting [3]) and 0 in assay [1] (setting [4]).

Turning to […] (CDR3 as printed); I12L derived by comparing it with the table's wild-type CDR3 AGPMKTSYDKVI, the figures for the enrichment in assay [1] (setting [3]) and in assay [1] (setting [4]) were 0.907 and 0, respectively.

As for […] (CDR3 as printed); D9A derived by comparing it with the table's wild-type CDR3 AGPMKTSYDKVI, the enrichment is 1.01 in assay [1] (setting [3]) and 0 in assay [1] (setting [4]). With […] (CDR3 as printed); M4K derived by comparing it with the table's wild-type CDR3 AGPMKTSYDKVI, the enrichment in assay [1] (setting [3]) is 0.454; in assay [1] (setting [4]), 0. On to […] (CDR3 as printed); K5N derived by comparing it with the table's wild-type CDR3 AGPMKTSYDKVI, for which the enrichment turned out to be 1.12 in assay [1] (setting [3]) and 0 in assay [1] (setting [4]).

For […] (CDR3 as printed); Y8T derived by comparing it with the table's wild-type CDR3 AGPMKTSYDKVI, the enrichment in assay [1] (setting [3]) came to 1.15; in assay [1] (setting [4]), 0.

For the variant […] (CDR3 as printed); P3A derived by comparing it with the table's wild-type CDR3 AGPMKTSYDKVI, the enrichment in assay [1] (setting [3]) turned out to be 1.21; in assay [1] (setting [4]) it was 0. As for […] (CDR3 as printed); D9W derived by comparing it with the table's wild-type CDR3 AGPMKTSYDKVI, the values for the enrichment in assay [1] (setting [3]) and in assay [1] (setting [4]) were 1.34 and 0, respectively.

[…] (CDR3 as printed); I12G derived by comparing it with the table's wild-type CDR3 AGPMKTSYDKVI: the results for the enrichment in assay [1] (setting [3]) and in assay [1] (setting [4]) were 1.06 and 0, respectively. On to […] (CDR3 as printed); G2Q derived by comparing it with the table's wild-type CDR3 AGPMKTSYDKVI, for which the enrichment in assay [1] (setting [3]) came out at 0.677; in assay [1] (setting [4]), 0. In the same order, the values of […] (CDR3 as printed); Y8A derived by comparing it with the table's wild-type CDR3 AGPMKTSYDKVI are 0.451 and 0. In the same order, the values of […] (CDR3 as printed); K5S derived by comparing it with the table's wild-type CDR3 AGPMKTSYDKVI are 0.492 and 0. The like results for […] (CDR3 as printed); G2C derived by comparing it with the table's wild-type CDR3 AGPMKTSYDKVI were, in that order, 0.956 and 0. For the variant […] (CDR3 as printed); K10N derived by comparing it with the table's wild-type CDR3 AGPMKTSYDKVI, the enrichment in assay [1] (setting [3]) worked out at 1.16; in assay [1] (setting [4]), 0.

Turning to […] (CDR3 as printed); G2D derived by comparing it with the table's wild-type CDR3 AGPMKTSYDKVI, the enrichment in assay [1] (setting [3]) was determined as 1.02; in assay [1] (setting [4]) it was 0. In the same order, the values of […] (CDR3 as printed); T6I derived by comparing it with the table's wild-type CDR3 AGPMKTSYDKVI are 0.515 and 0. For […] (CDR3 as printed); S7H derived by comparing it with the table's wild-type CDR3 AGPMKTSYDKVI, the values for the enrichment in assay [1] (setting [3]) and in assay [1] (setting [4]) were 0.722 and 0, respectively. In the same order, the values of […] (CDR3 as printed); I12M derived by comparing it with the table's wild-type CDR3 AGPMKTSYDKVI are 0.63 and 0. In the same order, the values of […] (CDR3 as printed); P3C derived by comparing it with the table's wild-type CDR3 AGPMKTSYDKVI are 0.884 and 0. The like results for […] (CDR3 as printed); V11E derived by comparing it with the table's wild-type CDR3 AGPMKTSYDKVI were, in that order, 1.34 and 0.

For the variant […] (CDR3 as printed); G2K derived by comparing it with the table's wild-type CDR3 AGPMKTSYDKVI, the enrichment in assay [1] (setting [3]) was 0.928; in assay [1] (setting [4]), 0. For […] (CDR3 as printed); S7R derived by comparing it with the table's wild-type CDR3 AGPMKTSYDKVI, the enrichment was 0.927 in assay [1] (setting [3]) and 0 in assay [1] (setting [4]). In the same order, the values of […] (CDR3 as printed); D9P derived by comparing it with the table's wild-type CDR3 AGPMKTSYDKVI are 1.22 and 0. In the same order, the values of […] (CDR3 as printed); V11W derived by comparing it with the table's wild-type CDR3 AGPMKTSYDKVI are 0.939 and 0. In the case of […] (CDR3 as printed); S7D derived by comparing it with the table's wild-type CDR3 AGPMKTSYDKVI, the enrichment in assay [1] (setting [3]) turned out to be 0.804; in assay [1] (setting [4]), 0. In the same order, the values of […] (CDR3 as printed); K10P derived by comparing it with the table's wild-type CDR3 AGPMKTSYDKVI are 0.876 and 0. In the same order, the values of […] (CDR3 as printed); A1N derived by comparing it with the table's wild-type CDR3 AGPMKTSYDKVI are 0.847 and 0.

In the case of […] (CDR3 as printed); M4Y derived by comparing it with the table's wild-type CDR3 AGPMKTSYDKVI, the enrichment stood at 1.15 in assay [1] (setting [3]) and 0 in assay [1] (setting [4]).

Consider […] (CDR3 as printed); Y8R derived by comparing it with the table's wild-type CDR3 AGPMKTSYDKVI, for which the enrichment in assay [1] (setting [3]) was found to be 1.17; in assay [1] (setting [4]) it was 0.

Consider […] (CDR3 as printed); V11I derived by comparing it with the table's wild-type CDR3 AGPMKTSYDKVI, for which the enrichment in assay [1] (setting [3]) was 0.74; in assay [1] (setting [4]), 0. In the same order, the values of […] (CDR3 as printed); G2F derived by comparing it with the table's wild-type CDR3 AGPMKTSYDKVI are 0.804 and 0. In the case of […] (CDR3 as printed); T6L derived by comparing it with the table's wild-type CDR3 AGPMKTSYDKVI, the enrichment in assay [1] (setting [3]) came out at 1.1; in assay [1] (setting [4]) it was 0. The like results for […] (CDR3 as printed); K5W derived by comparing it with the table's wild-type CDR3 AGPMKTSYDKVI were, in that order, 0.659 and 0.

Regarding […] (CDR3 as printed); A1M derived by comparing it with the table's wild-type CDR3 AGPMKTSYDKVI, the enrichment was 0.803 in assay [1] (setting [3]) and 0 in assay [1] (setting [4]).

As to […] (CDR3 as printed); I12C derived by comparing it with the table's wild-type CDR3 AGPMKTSYDKVI, the enrichment in assay [1] (setting [3]) turned out to be 1.05; in assay [1] (setting [4]), 0. In the same order, the values of […] (CDR3 as printed); T6R derived by comparing it with the table's wild-type CDR3 AGPMKTSYDKVI are 0.792 and 0. In the same order, the values of […] (CDR3 as printed); G2R derived by comparing it with the table's wild-type CDR3 AGPMKTSYDKVI are 0.977 and 0. In the same order, the values of […] (CDR3 as printed); A1Y derived by comparing it with the table's wild-type CDR3 AGPMKTSYDKVI are 0.935 and 0. For […] (CDR3 as printed); G2A derived by comparing it with the table's wild-type CDR3 AGPMKTSYDKVI, the enrichment in assay [1] (setting [3]) worked out at 0.977; in assay [1] (setting [4]), 0. The like results for […] (CDR3 as printed); D9Q derived by comparing it with the table's wild-type CDR3 AGPMKTSYDKVI were, in that order, 0.673 and 0. Turning to […] (CDR3 as printed); M4S derived by comparing it with the table's wild-type CDR3 AGPMKTSYDKVI, the enrichment came out at 0.52 in assay [1] (setting [3]) and 0 in assay [1] (setting [4]).

Turning to […] (CDR3 as printed); P3F derived by comparing it with the table's wild-type CDR3 AGPMKTSYDKVI, the enrichment was found to be 1.32 in assay [1] (setting [3]) and 0 in assay [1] (setting [4]). In the same order, the values of […] (CDR3 as printed); D9I derived by comparing it with the table's wild-type CDR3 AGPMKTSYDKVI are 1.01 and 0.

In the case of […] (CDR3 as printed); Y8F derived by comparing it with the table's wild-type CDR3 AGPMKTSYDKVI, the enrichment in assay [1] (setting [3]) was determined as 1.1; in assay [1] (setting [4]), 0. In the same order, the values of […] (CDR3 as printed); A1R derived by comparing it with the table's wild-type CDR3 AGPMKTSYDKVI are 0.924 and 0.

Turning to […] (CDR3 as printed); Y8E derived by comparing it with the table's wild-type CDR3 AGPMKTSYDKVI, the enrichment in assay [1] (setting [3]) is 0.485; in assay [1] (setting [4]), 3.54. On to […] (CDR3 as printed); K10I derived by comparing it with the table's wild-type CDR3 AGPMKTSYDKVI, for which the enrichment was found to be 1.1 in assay [1] (setting [3]) and 0 in assay [1] (setting [4]).

Regarding […] (CDR3 as printed); S7A derived by comparing it with the table's wild-type CDR3 AGPMKTSYDKVI, the enrichment in assay [1] (setting [3]) stood at 0.945; in assay [1] (setting [4]) it was 0.

Turning to […] (CDR3 as printed); M4E derived by comparing it with the table's wild-type CDR3 AGPMKTSYDKVI, the results for the enrichment in assay [1] (setting [3]) and in assay [1] (setting [4]) were 0.637 and 0, respectively. The like results for […] (CDR3 as printed); Y8N derived by comparing it with the table's wild-type CDR3 AGPMKTSYDKVI were, in that order, 0.932 and 0. For […] (CDR3 as printed); A1F derived by comparing it with the table's wild-type CDR3 AGPMKTSYDKVI, in assay [2], the enrichment was 2.07. The same measure, in the same setting: the figure for […] (CDR3 as printed); A1N derived by comparing it with the table's wild-type CDR3 AGPMKTSYDKVI is 0.476; for […] (CDR3 as printed); A1C derived by comparing it with the table's wild-type CDR3 AGPMKTSYDKVI it is 0.571; for […] (CDR3 as printed); A1P derived by comparing it with the table's wild-type CDR3 AGPMKTSYDKVI it is 2.46. The same measure, in the same setting: the figure for […] (CDR3 as printed); A1Q derived by comparing it with the table's wild-type CDR3 AGPMKTSYDKVI is 0. Turning to […] (CDR3 as printed); A1G derived by comparing it with the table's wild-type CDR3 AGPMKTSYDKVI, in assay [2], the enrichment came out at 0.

Take […] (CDR3 as printed); A1L derived by comparing it with the table's wild-type CDR3 AGPMKTSYDKVI: the enrichment in assay [2] turned out to be 0. On the same count and under the same terms, the figure for […] (CDR3 as printed); A1H derived by comparing it with the table's wild-type CDR3 AGPMKTSYDKVI is 1.05; for […] (CDR3 as printed); A1D derived by comparing it with the table's wild-type CDR3 AGPMKTSYDKVI it is 0; for […] (CDR3 as printed); A1I derived by comparing it with the table's wild-type CDR3 AGPMKTSYDKVI it is 0.473.

Take […] (CDR3 as printed); A1K derived by comparing it with the table's wild-type CDR3 AGPMKTSYDKVI: the enrichment in assay [2] turned out to be 0. Still for that read-out and setting: the figure for […] (CDR3 as printed); A1M derived by comparing it with the table's wild-type CDR3 AGPMKTSYDKVI is 0.103; for […] (CDR3 as printed); A1E derived by comparing it with the table's wild-type CDR3 AGPMKTSYDKVI it is 0.186.
